Assay results: patent US20200108156

Tests used:
[1] = test system: Cy5.5-NFP2 nanofiber peptide construct, mPEG2000 KLDLKLDLKLDLK-Cy5.5
[2] = test system: FITC-NFP2 nanofiber peptide construct, mPEG2000-KLDLKLDLKLDLK(FITC)
[3] = test system: Cy5.5-NFP1 nanofiber peptide construct, mPEG2000-KKKKKKKLDLKLDLKLDLK-Cy5.5
[4] = test system: DM1-MCC-NFP1 (DM1-loaded NFP1 nanofiber)
[5] = test system: DM1-MCC-NFP2 (DM1-loaded NFP2 nanofiber)
[6] = test system: FITC-NFP1 nanofiber peptide construct, mPEG2000-KKKKKKKLDLKLDLKLDLK(FITC)

## Cathepsin B (CathB), purified from bovine spleen (EMD Millipore)
[1]
  fluorescence recovery after CathB activation: the fluorescence of Cy5.5-NFP2 was only slightly increased after exposure to CathB
[2]
  HPLC of nanofibers after 24 h CathB digestion (enzyme cleavage): only one fragment was identified when FITC-NFP2 was subjected to CathB digestion
[3]
  fluorescence recovery after CathB activation: CathB digestion of Cy5.5-NFP1 led to the release of Cy5.5-peptide fragments, thus resulting in the recovery of the fluorescence signal
[4]
  drug metabolites after CathB digestion (HPLC, MALDI-TOF): After CathB digestion, Lys-MCC-DM1 ... was identified in DM1-MCC-NFP1
[5]
  drug metabolites after CathB digestion (HPLC, MALDI-TOF): For DM1-MCC-NFP2, no drug metabolite was identified during CathB digestion due to its slow release property
[6]
  HPLC of nanofibers after 24 h CathB digestion (enzyme cleavage): CathB digested FITC-NFP1 into multiple peptide fragments after 24 hours
